Measurements: patent US20120039802A1 (published 2012)

B1: 332-H09 peptide-displaying phage (SEQ ID NO: 398) (peptide)
peptide: GDNRFCSWVYNVDDWWCVDNDP
B2: 119-F06 peptide-displaying phage (SEQ ID NO: 455) (peptide)
peptide: AQMYQTPDGVIGKFVDWMFN
B3: 484-D08 peptide-displaying phage (SEQ ID NO: 016) (peptide)
peptide: AGWWSCQWELNVCIWQGT
B4: 118-C07 peptide-displaying phage (SEQ ID NO: 460) (peptide)
peptide: AQFPLEFDVPNFSYHWLVSFNP
B5: 547-C09 peptide-displaying phage (SEQ ID NO: 401) (peptide)
peptide: GDPDECQLNRETFEVWCPWHDP
B6: 531-E11 peptide-displaying phage (SEQ ID NO: 404) (peptide)
peptide: GDASMCYDGLALRWDQCWPHDP
B7: 93-C08 peptide-displaying phage (SEQ ID NO: 464) (peptide)
peptide: AQVPDWLSAVVIEKLIEYGMMV
B8: 94-F07 peptide-displaying phage (SEQ ID NO: 458) (peptide)
peptide: AQPYYELQDADMLLVVALLSTG
B9: 92-B05 peptide-displaying phage (SEQ ID NO: 465) (peptide)
peptide: AQFDRYWHFAWMDVSFSSGQSG
B10: 104-C09 peptide-displaying phage (SEQ ID NO: 461) (peptide)
peptide: AQDLKPWTAGWEPPWLWTDRGP
B11: 118-A08 peptide-displaying phage (SEQ ID NO: 453) (peptide)
peptide: AQRWSSPGMSQSFVLEWKWNDN
B12: 465-A06 peptide-displaying phage (SEQ ID NO: 002) (peptide)
peptide: GSYYDCREFQCNKPAP
B13: 545-H12 peptide-displaying phage (SEQ ID NO: 399) (peptide)
peptide: GDYSECFFEPDSFEVKCYDRDP
B14: 94-H04 peptide-displaying phage (SEQ ID NO: 457) (peptide)
peptide: AQNAVVPPPMLWSIYWDYGREG
B15: 76-D09 peptide-displaying phage (SEQ ID NO: 463) (peptide)
peptide: AQSPYIFPIDDSGRQIFVIQWG
B16: 552-F06 peptide-displaying phage (SEQ ID NO: 403) (peptide)
peptide: GDHLTCEFRDDGWKEHCWWSDP
B17: 545-F04 peptide-displaying phage (SEQ ID NO: 402) (peptide)
peptide: GDHRKCEISAKTHEVTCYDNDP
B18: 330-G02 peptide-displaying phage (SEQ ID NO: 396) (peptide)
peptide: GDPWWCFEKDSFIPFACWHHDP
B19: 524-E09 peptide-displaying phage (SEQ ID NO: 451) (peptide)
peptide: AQREVEEPYWYLDFLSSWRMHE
B20: 02-B08 peptide-displaying phage (SEQ ID NO: 467) (peptide)
peptide: AQHSVQRQMDVWMPVQFMAGFT
B21: 434-E12 peptide-displaying phage (SEQ ID NO: 014) (peptide)
peptide: AGDGWCMAWPEICEWLGT
B22: 117-F03 peptide-displaying phage (SEQ ID NO: 468) (peptide)
peptide: AQEWQTWTWNMIEVISENKTP
B23: 525-A07 peptide-displaying phage (SEQ ID NO: 449) (peptide)
peptide: AQQASRFTFTDGDSYWWFEDF
B24: 548-G05 peptide-displaying phage (SEQ ID NO: 400) (peptide)
peptide: GDYRMCQISDMWGNYECSSDDP
B25: 117-F08 peptide-displaying phage (SEQ ID NO: 462) (peptide)
peptide: AQHQYGQMMVLHIQYDMGEFIP
B26: 489-A04 peptide-displaying phage (SEQ ID NO: 015) (peptide)
peptide: AGLYLCDLSIMYCFFQGT
B27: 316-F08 peptide-displaying phage (SEQ ID NO: 397) (peptide)
peptide: GDYYQCQFSKDMYSERCWPYDP
B28: 116-H02 peptide-displaying phage (SEQ ID NO: 466) (peptide)
peptide: AQKETWEFFDIVYGSGWKFNSP
B29: 94-E08 peptide-displaying phage (SEQ ID NO: 454) (peptide)
peptide: AQYDTWVFQFIHEVPGELVAMQ
notes: also called linear isolate 94-E08
B30: 103-G08 peptide-displaying phage (SEQ ID NO: 459) (peptide)
peptide: AQVGTAEAIMFSDVEDTGVHKF
B31: 96-H12 peptide-displaying phage (SEQ ID NO: 452) (peptide)
peptide: AQRPEAHYKLAMSYPIIPRTKT
B32: 528-F05 peptide-displaying phage (SEQ ID NO: 450) (peptide)
peptide: AQIQGIQKTEQGEFYWFNWFPA
B33: 95-A11 peptide-displaying phage (SEQ ID NO: 456) (peptide)
peptide: AQVGSPMLPSWFSFEANWSS

Experiments:
[1] = target: T1, cMet-Fc fusion protein (extracellular domain of the cMet receptor expressed as an Fc-fusion protein) (human, UniProt P08581 25-932); assay: phage ELISA on cMet-Fc, competitor HGF 500 ng/mL
T1 construct: extracellular domain; also called soluble cMet-Fc-fusion protein; soluble cMet receptor; not shown: Fc part
T1 sequence (P08581 25-932): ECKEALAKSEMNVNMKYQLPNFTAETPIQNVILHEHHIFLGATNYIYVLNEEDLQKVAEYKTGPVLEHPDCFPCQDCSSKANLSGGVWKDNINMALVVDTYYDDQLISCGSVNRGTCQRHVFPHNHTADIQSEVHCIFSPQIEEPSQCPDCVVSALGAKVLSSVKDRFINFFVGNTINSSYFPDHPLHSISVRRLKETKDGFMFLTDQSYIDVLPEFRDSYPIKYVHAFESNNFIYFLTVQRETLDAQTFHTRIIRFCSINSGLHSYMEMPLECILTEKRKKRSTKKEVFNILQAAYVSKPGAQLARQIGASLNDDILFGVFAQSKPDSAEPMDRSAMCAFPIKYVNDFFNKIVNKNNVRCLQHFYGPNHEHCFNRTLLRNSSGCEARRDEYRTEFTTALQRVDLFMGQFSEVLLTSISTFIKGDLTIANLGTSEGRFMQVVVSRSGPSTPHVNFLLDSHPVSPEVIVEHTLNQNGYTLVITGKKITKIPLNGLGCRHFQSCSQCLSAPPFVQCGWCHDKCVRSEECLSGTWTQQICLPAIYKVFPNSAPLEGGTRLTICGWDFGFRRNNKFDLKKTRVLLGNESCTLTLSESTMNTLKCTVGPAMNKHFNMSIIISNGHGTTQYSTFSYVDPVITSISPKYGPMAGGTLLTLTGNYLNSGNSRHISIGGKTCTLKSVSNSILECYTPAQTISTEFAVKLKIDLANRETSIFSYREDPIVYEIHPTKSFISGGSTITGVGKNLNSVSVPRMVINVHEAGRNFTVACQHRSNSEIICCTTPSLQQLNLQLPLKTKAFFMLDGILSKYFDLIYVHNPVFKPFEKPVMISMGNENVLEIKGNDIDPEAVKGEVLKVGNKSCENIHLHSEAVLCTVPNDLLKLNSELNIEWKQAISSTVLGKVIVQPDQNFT
Method in brief: (§1)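 Plates coated with 0.5 μg/mL cMet-Fc, with TRAIL-Fc as background, then blocked with 3% BSA. Bound phage detected with HRP anti-M13 antibody.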

[2] = target: T1, cMet-Fc fusion protein (extracellular …); assay: phage ELISA on cMet-Fc, competitor HGF 100 ng/mL
Method in brief: as §1

[3] = target: T1, cMet-Fc fusion protein (extracellular …); assay: phage ELISA, cMet-Fc vs TRAIL-Fc
Method in brief: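 Specificity check: phage displaying peptides incubated 2 h at room temperature on wells coated with 0.5 μg/mL cMet-Fc versus TRAIL-Fc, after blocking with 3% BSA/PBST. HRP-anti-M13 antibody detected binding phage.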

[4] = target: T2, human cMet expressed on 3T3 cells (human, UniProt P08581 25-1390); assay: whole cell phage ELISA, 3T3 human cMet vs 3T3
T2 construct: whole, on cells; cells fixed with glutaraldehyde; also called cell surface-expressed human cMet; 3T3 cells that over-express human cMet
T2 sequence (P08581 25-1390): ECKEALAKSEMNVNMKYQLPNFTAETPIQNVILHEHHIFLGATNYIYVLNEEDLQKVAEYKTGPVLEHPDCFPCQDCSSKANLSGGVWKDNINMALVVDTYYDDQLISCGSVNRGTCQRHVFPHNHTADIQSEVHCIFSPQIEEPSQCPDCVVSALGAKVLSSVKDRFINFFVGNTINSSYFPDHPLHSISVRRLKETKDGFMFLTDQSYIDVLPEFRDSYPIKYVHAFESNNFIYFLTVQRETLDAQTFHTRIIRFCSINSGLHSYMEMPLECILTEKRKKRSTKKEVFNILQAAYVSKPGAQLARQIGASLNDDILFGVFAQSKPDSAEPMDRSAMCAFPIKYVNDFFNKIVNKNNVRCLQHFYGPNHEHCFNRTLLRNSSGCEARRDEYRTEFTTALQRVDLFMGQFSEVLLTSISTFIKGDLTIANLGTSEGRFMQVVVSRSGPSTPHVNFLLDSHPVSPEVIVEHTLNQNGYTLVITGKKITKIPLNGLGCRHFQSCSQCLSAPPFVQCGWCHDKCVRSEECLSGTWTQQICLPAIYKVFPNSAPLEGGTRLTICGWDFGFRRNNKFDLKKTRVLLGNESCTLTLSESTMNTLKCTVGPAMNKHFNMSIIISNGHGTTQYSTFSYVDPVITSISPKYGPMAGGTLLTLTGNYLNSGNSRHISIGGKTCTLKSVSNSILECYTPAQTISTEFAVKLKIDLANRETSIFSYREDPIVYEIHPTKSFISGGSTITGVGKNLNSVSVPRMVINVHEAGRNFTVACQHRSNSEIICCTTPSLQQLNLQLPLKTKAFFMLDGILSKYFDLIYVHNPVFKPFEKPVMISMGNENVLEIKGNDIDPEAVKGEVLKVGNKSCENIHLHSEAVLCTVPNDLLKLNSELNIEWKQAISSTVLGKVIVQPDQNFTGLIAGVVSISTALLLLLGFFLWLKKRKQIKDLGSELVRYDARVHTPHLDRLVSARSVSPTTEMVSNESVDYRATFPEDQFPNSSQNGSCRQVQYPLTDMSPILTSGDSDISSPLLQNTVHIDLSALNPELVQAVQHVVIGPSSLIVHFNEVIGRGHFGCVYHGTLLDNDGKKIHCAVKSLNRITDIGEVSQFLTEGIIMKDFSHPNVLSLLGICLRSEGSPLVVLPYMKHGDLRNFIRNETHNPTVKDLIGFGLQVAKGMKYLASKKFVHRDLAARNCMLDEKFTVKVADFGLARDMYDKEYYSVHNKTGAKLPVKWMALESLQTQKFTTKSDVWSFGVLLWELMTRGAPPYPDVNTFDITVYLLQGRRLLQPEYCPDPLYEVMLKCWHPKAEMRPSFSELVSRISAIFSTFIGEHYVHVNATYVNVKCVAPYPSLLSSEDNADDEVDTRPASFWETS
Method in brief: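 Bound phage was detected with an HRP-conjugated anti-M13 antibody after PBST washes. The cells were cMet-over-expressing 3T3, read against plain 3T3.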

Binder	% of binding in the absence of HGF [1] [%]	% of binding in the absence of HGF [2] [%]	Protein ELISA (fold over background) [3] [fold]	WC ELISA (fold over background) [4] [fold]
B1	43	50	6.2	1.3
B2	27	4	8	1.33
B3	90	105	4.1	1.33
B4	84	100	5.6	1.27
B5	32	50	4.3	1.23
B6	33	61	3.4	1.3
B7	96	101	4.4	1.37
B8	104	106	6.1	1.2
B9	94	94	4.3	1.2
B10	50	64	5	1.3
B11	74	85	11.3	1.3
B12	32	56	4.4	1.33
B13	60	74	11.3	1.3
B14	101	150	7	1.37
B15	87	79	4.4	1.23
B16	32	82	11.1	1.23
B17	114	143	5.2	1.17

Binder	% of binding in the absence of HGF [1] [%]	% of binding in the absence of HGF [2] [%]	Protein ELISA (fold over background) [3] [fold]	WC ELISA (fold over background) [4] [fold]
B18	31	37	7.4	1.3
B19	93	100	8.2	1.33
B20	96	84	3.9	1.3
B21	41	117	4.8	1.33
B22	93	104	3.8	1.4
B23	88	93	7	1.17
B24	47	110	6.1	1.3
B25	270	102	4.5	1.27
B26	13	30	4.3	1.33
B27	38	72	7	1.3
B28	72	84	4	1.23
B29	74	102	8.9	1.23
B30	95	140	5.7	1.33
B31	64	88	35.3	1.37
B32	81	84	4.3	1.1
B33	108	109	7	1.3
